According to paper PMC9536601, “Binding of adenovirus species C hexon to prothrombin and the influence of hexon on vector properties in vitro and in vivo” (PLoS Pathogens, 2022):
Changes are numbered by the printed parent chain.

B1: mouse coagulation factor X (natural protein)
chain: ANSFFEEFKKGNLERECMEEICSYEEVREIFEDDEKTKEYWTKYKDGDQCESSPCQNQGACRDGIGGYTCTCSEGFEGKNCELFVRKLCRLDNGDCDQFCREEQNSVVCSCASGYFLGNDGKSCISTAPFPCGKITTGRRKRSVALNTSDSELDLEDALLDEDFLSPTENPIELLNLNETQPERSSDDLVRIVGGRECKDGECPWQALLINEDNEGFCGGTILNEFYILTAAHCLHQARRFKVRVGDRNTEKEEGNEMVHEVDVVIKHNKFQRDTYDYDIAVLRLKTPITFRMNVAPACLPQKDWAESTLMTQKTGIVSGFGRTHEKGRQSNILKMLEVPYVDRNTCKLSTSFSITQNMFCAGYEAKLEDACQGDSGGPHVTRFKNTYYVTGIVSWGEGCARKGKYGIYTKVTTFLKWIDRSMKARVGPTAETPRTAGPPN
modifications: gamma-carboxylated glutamate residues in the Gla domain
notes: coagulation factor X, mouse, plasma-derived; Pretreated with 125 uM GGACK (EGRCK); written here as one entry; also called mouse FX; source: bought: Haematologic Technologies, Inc. (MCX-5050), plasma-derived
B2: hexon of wild-type human adenovirus type 2 (on virions) (natural protein)
chain: MATPSMMPQWSYMHISGQDASEYLSPGLVQFARATETYFSLNNKFRNPTVAPTHDVTTDRSQRLTLRFIPVDREDTAYSYKARFTLAVGDNRVLDMASTYFDIRGVLDRGPTFKPYSGTAYNALAPKGAPNSCEWEQTEDSGRAVAEDEEEEDEDEEEEEEEQNARDQATKKTHVYAQAPLSGETITKSGLQIGSDNAETQAKPVYADPSYQPEPQIGESQWNEADANAAGGRVLKKTTPMKPCYGSYARPTNPFGGQSVLVPDEKGVPLPKVDLQFFSNTTSLNDRQGNATKPKVVLYSEDVNMETPDTHLSYKPGKGDENSKAMLGQQSMPNRPNYIAFRDNFIGLMYYNSTGNMGVLAGQASQLNAVVDLQDRNTELSYQLLLDSIGDRTRYFSMWNQAVDSYDPDVRIIENHGTEDELPNYCFPLGGIGVTDTYQAIKANGNGSGDNGDTTWTKDETFATRNEIGVGNNFAMEINLNANLWRNFLYSNIALYLPDKLKYNPTNVEISDNPNTYDYMNKRVVAPGLVDCYINLGARWSLDYMDNVNPFNHHRNAGLRYRSMLLGNGRYVPFHIQVPQKFFAIKNLLLLPGSYTYEWNFRKDVNMVLQSSLGNDLRVDGASIKFDSICLYATFFPMAHNTASTLEAMLRNDTNDQSFNDYLSAANMLYPIPANATNVPISIPSRNWAAFRGWAFTRLKTKETPSLGSGYDPYYTYSGSIPYLDGTFYLNHTFKKVAITFDSSVSWPGNDRLLTPNEFEIKRSVDGEGYNVAQCNMTKDWFLVQMLANYNIGYQGFYIPESYKDRMYSFFRNFQPMSRQVVDDTKYKEYQQVGILHQHNNSGFVGYLAPTMREGQAYPANVPYPLIGKTAVDSITQKKFLCDRTLWRIPFSSNFMSMGALTDLGQNLLYANSAHALDMTFEVDPMDEPTLLYVLFEVFDVVRVHQPHRGVIETVYLRTPFSAGNATT
notes: hexon of human adenovirus type 2 (species C), whole hexon as it stands in the capsid of the virion; Immobilised as whole virions; also called Ad2; source: wild-type virus from ATCC, grown on 293 cells, virions purified by CsCl ultracentrifugation
B3: hexon of Ad5.5 (Ad5 vector, hexon HVR7 VINTDTL), on the virion (natural protein, human adenovirus type 5)
chain: ATPSMMPQWSYMHISGQDASEYLSPGLVQFARATETYFSLNNKFRNPTVAPTHDVTTDRSQRLTLRFIPVDREDTAYSYKARFTLAVGDNRVLDMASTYFDIRGVLDRGPTFKPYSGTAYNALAPKGAPNPCEWDEAATALEINLEEEDDDNEDEVDEQAEQQKTHVFGQAPYSGINITKEGIQIGVEGQTPKYADKTFQPEPQIGESQWYETEINHAAGRVLKKTTPMKPCYGSYAKPTNENGGQGILVKQQNGKLESQVEMQFFSTTEATAGNGDNLTPKVVLYSEDVDIETPDTHISYMPTIKEGNSRELMGQQSMPNRPNYIAFRDNFIGLMYYNSTGNMGVLAGQASQLNAVVDLQDRNTELSYQLLLDSIGDRTRYFSMWNQAVDSYDPDVRIIENHGTEDELPNYCFPLGGVINTDTLTKVKPKTGQENGWEKDATEFSDKNEIRVGNNFAMEINLNANLWRNFLYSNIALYLPDKLKYSPSNVKISDNPNTYDYMNKRVVAPGLVDCYINLGARWSLDYMDNVNPFNHHRNAGLRYRSMLLGNGRYVPFHIQVPQKFFAIKNLLLLPGSYTYEWNFRKDVNMVLQSSLGNDLRVDGASIKFDSICLYATFFPMAHNTASTLEAMLRNDTNDQSFNDYLSAANMLYPIPANATNVPISIPSRNWAAFRGWAFTRLKTKETPSLGSGYDPYYTYSGSIPYLDGTFYLNHTFKKVAITFDSSVSWPGNDRLLTPNEFEIKRSVDGEGYNVAQCNMTKDWFLVQMLANYNIGYQGFYIPESYKDRMYSFFRNFQPMSRQVVDDTKYKDYQQVGILHQHNNSGFVGYLAPTMREGQAYPANFPYPLIGKTAVDSITQKKFLCDRTLWRIPFSSNFMSMGALTDLGQNLLYANSAHALDMTFEVDPMDEPTLLYVLFEVFDVVRVHRPHRGVIETVYLRTPFSAGNATT
notes: hexon of human adenovirus type 5, whole as in the capsid of the virion; HVR7 segment changed; The whole virion was immobilised; source: 293 cells, virions purified by CsCl ultracentrifugation
B4: hexon of Ad5.4 (Ad5 vector, hexon HVR7 VINTATL), on the virion (natural protein, human adenovirus type 5)
chain: B3 chain with D423A
notes: as for B3
B5: hexon of wild-type human adenovirus type 5 (on virions) (natural protein)
chain: B3 chain with D423E
notes: hexon of human adenovirus type 5 (species C), whole hexon as it stands in the capsid of the virion; Immobilised as whole virions; also called Ad5; source: wild-type virus from ATCC, grown on 293 cells, virions purified by CsCl ultracentrifugation
B6: hexon of Ad5.6 (Ad5 vector, hexon HVR7 VIRTDTL), on the virion (natural protein, human adenovirus type 5)
chain: B3 chain with N421R
notes: as for B3
B7: hexon of Ad5.0 (E1/E3-deleted Ad5 vector with wild-type Ad5 capsid), on the virion (natural protein, human adenovirus type 5)
chain: B3 chain with D423E
notes: hexon of human adenovirus type 5, whole as in the capsid of the virion; HVR7 segment VINTETL; The whole virion was immobilised; The other capsid proteins are not written; also called VINTETL; source: 293 cells, virions purified by CsCl ultracentrifugation
B8: bovine coagulation factor X (natural protein)
chain: ANSFLEEVKQGNLERECLEEACSLEEAREVFEDAEQTDEFWSKYKDGDQCEGHPCLNQGHCKDGIGDYTCTCAEGFEGKNCEFSTREICSLDNGGCDQFCREERSEVRCSCAHGYVLGDDSKSCVSTERFPCGKFTQGRSRRWAIHTSEDALDASELEHYDPADLSPTESSLDLLGLNRTEPSAGEDGSQVVRIVGGRDCAEGECPWQALLVNEENEGFCGGTILNEFYVLTAAHCLHQAKRFTVRVGDRNTEQEEGNEMAHEVEMTVKHSRFVKETYDFDIAVLRLKTPIRFRRNVAPACLPEKDWAEATLMTQKTGIVSGFGRTHEKGRLSSTLKMLEVPYVDRSTCKLSSSFTITPNMFCAGYDTQPEDACQGDSGGPHVTRFKDTYFVTGIVSWGEGCARKGKFGVYTKVSNFLKWIDKIMKARAGAAGSRGHSEAPATWTVPPPLPL
modifications: gamma-carboxylated glutamate residues in the Gla domain
notes: coagulation factor X, bovine, plasma-derived; Pretreated with 125 uM GGACK (EGRCK); written here as one entry; also called bovine FX; source: bought: Haematologic Technologies, Inc. (BCX-1050), plasma-derived
B9: bovine prothrombin (coagulation factor II) (natural protein)
chain: not shown
modifications: gamma-carboxylated glutamate residues in the Gla domain
notes: prothrombin (FII), bovine, plasma-derived; also called bovine FII; source: bought: Haematologic Technologies, Inc. (BCP-1010), plasma-derived
B10: mouse prothrombin (coagulation factor II) (natural protein)
chain: not shown
modifications: gamma-carboxylated glutamate residues in the Gla domain
notes: prothrombin (FII), mouse, plasma-derived; also called mouse FII

Columns and labels:
Settings in all cases: both partners purified
[1] = biological target: B2; assay: SPR; Biacore T200; about 300 to 5,000 RU of Ad virions immobilised on a CM5 chip, coagulation factors flowed over at four concentrations, 50 uL/min; running buffer 10 mM HEPES, 150 mM NaCl, 1 mM CaCl2, 0.5 mM MgCl2, 0.1% BSA, 0.05% polysorbate 20, pH 7.4; regeneration with 3 mM EDTA; global fit to a 1:1 kinetic interaction model, double referencing
[2] = biological target: B5; assay: as above
[3] = biological target: T1, hexon of the E1/E3-deleted Ad5 vector Ad5.0 (wild-type Ad5 capsid, on virions) (human adenovirus 5, UniProt P04133 2-952); assay: as above
T1 construct: hexon of human adenovirus type 5, unchanged, as it stands in the capsid of the vector; Immobilised as whole vector virions; source: E1/E3-deleted Ad5 vector grown on 293 cells, virions purified by CsCl ultracentrifugation

[4] = biological target: T2, human prothrombin (coagulation factor II) (human, UniProt P00734 44-622, gamma-carboxylated glutamate residues in the Gla domain); assay: as above
T2 construct: prothrombin (FII), human, plasma-derived; also called human FII; FII; source: bought: Haematologic Technologies, Inc. (HCP-0010), plasma-derived

[5] = biological target: T3, human prothrombin (coagulation factor II) (human, UniProt P00734 44-622, γ-carboxylated glutamate residues in the Gla domain (positions not given)); assay: SPR; Biacore T200; about 300 to 5,000 RU of Ad virions immobilised on a CM5 chip, coagulation factors flowed over at four concentrations, 50 uL/min; 10 mM HEPES, 150 mM NaCl, 1 mM CaCl2, 0.5 mM MgCl2, 0.1% BSA, 0.05% polysorbate 20, pH 7.4; global fit to a 1:1 kinetic interaction model, double referencing
T3 construct: prothrombin (FII), human, plasma-derived; also called Human FII; FII; source: bought: Haematologic Technologies, Inc. (HCP-0010), plasma-derived; dialyzed

**Q.** With B1 as the binder, how does the koff [1] read?
**A.** 0.00018 s⁻¹

**Q.** What about the kon [1] of the same binder?
**A.** 238000 M⁻¹ s⁻¹

**Q.** And the koff [2]?
**A.** 8.4e-05 s⁻¹

**Q.** And the kon [2]?
**A.** 242000 M⁻¹ s⁻¹

**Q.** And the Kd [3]?
**A.** 0.32 nM

**Q.** And the koff [3]?
**A.** 8.61e-05 s⁻¹

**Q.** And the kon [3]?
**A.** 266000 M⁻¹ s⁻¹

**Q.** B2 was tested. Which Kd [4] did it give?
**A.** 4.5 nM

**Q.** What about the koff [4] of the same binder?
**A.** 0.000393 s⁻¹

**Q.** And the kon [4]?
**A.** 87400 M⁻¹ s⁻¹

**Q.** With B3 as the binder, how does the Kd [5] read?
**A.** 233 nM

**Q.** With B4 as the binder, how does the Kd [5] read?
**A.** 266 nM

**Q.** What does the source list for B5?
**A.** Kd [4]: 39 nM; koff [4]: 0.00321 s⁻¹; kon [4]: 83500 M⁻¹ s⁻¹

**Q.** With B6 as the binder, how does the Kd [5] read?
**A.** 130 nM

**Q.** How did the Kd [5] turn out when B7 was run?
**A.** 35 nM

**Q.** For B8, which koff [1] is on record?
**A.** 0.0142 s⁻¹

**Q.** What about the kon [1] of the same binder?
**A.** 194000 M⁻¹ s⁻¹

**Q.** And the Kd [2]?
**A.** 280 nM

**Q.** What about the koff [2] of the same binder?
**A.** 0.115 s⁻¹

**Q.** What about the kon [2] of the same binder?
**A.** 410000 M⁻¹ s⁻¹

**Q.** What about the Kd [3] of the same binder?
**A.** 270 nM

**Q.** What about the koff [3] of the same binder?
**A.** 0.0711 s⁻¹

**Q.** And the kon [3]?
**A.** 262000 M⁻¹ s⁻¹

**Q.** Which results are given for B9?
**A.** Kd [1]: 140 nM; koff [1]: 0.00531 s⁻¹; kon [1]: 37800 M⁻¹ s⁻¹

**Q.** How did the Kd [1] turn out when B10 was run?
**A.** 5.6 nM

**Q.** And the koff [1]?
**A.** 0.000393 s⁻¹

**Q.** And the kon [1]?
**A.** 69700 M⁻¹ s⁻¹

**Q.** What about the Kd [2] of the same binder?
**A.** 2100 nM

**Q.** What about the koff [2] of the same binder?
**A.** 0.0518 s⁻¹

**Q.** And the kon [2]?
**A.** 24500 M⁻¹ s⁻¹

**Q.** What about the Kd [3] of the same binder?
**A.** 2000 nM

**Q.** And the koff [3]?
**A.** 0.0361 s⁻¹

**Q.** What about the kon [3] of the same binder?
**A.** 18000 M⁻¹ s⁻¹
